From US20170065662A1

Target: recombinant His-p27 (full-length p27Kip1, C-terminal histidine tag) (human) (UniProt P46527)
Assay: phage-ELISA, SH3-displaying phage on recombinant His-p27 (multivalent phage, which would enhance binding)

recombinant His-p27 (full-length p27Kip1, C-terminal histidine tag) (human), sequence (P46527 whole entry): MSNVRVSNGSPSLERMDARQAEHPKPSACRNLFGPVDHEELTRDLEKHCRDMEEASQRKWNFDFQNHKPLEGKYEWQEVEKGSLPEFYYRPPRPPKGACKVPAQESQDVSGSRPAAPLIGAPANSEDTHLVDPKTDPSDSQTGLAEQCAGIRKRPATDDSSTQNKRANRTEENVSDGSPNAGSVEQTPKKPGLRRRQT

SH3 domain of Brk displayed on phage (from UniProt Q13882 12-70)
Kd: 250 nM
